Target: SARS-CoV-2 RBD (wild type) (SARS-CoV-2, UniProt P0DTC2 319-541)
Assay: SPR

B1: Mouse angiotensin-converting enzyme 2 (receptor)
chain: SLTEENAKTFLNNFNQEAEDLSYQSSLASWNYNTNITEENAQKMSEAAAKWSAFYEEQSKTAQSFSLQEIQTPIIKRQLQALQQSGSSALSADKNKQLNTILNTMSTIYSTGKVCNPKNPQECLLLEPGLDEIMATSTDYNSRLWAWEGWRAEVGKQLRPLYEEYVVLKNEMARANNYNDYGDYWRGDYEAEGADGYNYNRNQLIEDVERTFAEIKPLYEHLHAYVRRKLMDTYPSYISPTGCLPAHLLGDMWGRFWTNLYPLTVPFAQKPNIDVTDAMMNQGWDAERIFQEAEKFFVSVGLPHMTQGFWANSMLTEPADGRKVVCHPTAWDLGHGDFRIKMCTKVTMDNFLTAHHEMGHIQYDMAYARQPFLLRNGANEGFHEAVGEIMSLSAATPKHLKSIGLLPSDFQEDSETEINFLLKQALTIVGTLPFTYMLEKWRWMVFRGEIPKEQWMKKWWEMKREIVGVVEPLPHDETYCDPASLFHVSNDYSFIRYYTRTIYQFQFQEALCQAAKYNGSLHKCDISNSTEAGQKLLKMLSLGNSEPWTKALENVVGARNMDVKPLLNYFQPLFDWLKEQNRNSFVGWNTEWSPYADQSIKVRISLKSALGANAYEWTNNEMFLFRSSVAYAMRKYFSIIKNQTVPFLEEDVRVSDLKPRVSFYFFVTSPQNVSDVIPRSEVEDAIRMSRGRINDVFGLNDNSLEFLGIHPTLEPPYQPPV
Kd: > 1 mM

From paper PMC8476561 (2021)
